According to PMC3656102:

Experiments:
[1] = target: Bunyamwera virus Gc glycoprotein (Bunyamwera virus) (UniProt P04505); assay: cryo-EM structure; electron cryo-tomography and sub-tomogram averaging of about 2,000 spikes on purified BUNV virions vitrified at pH 7.4; 3.0 nm resolution; three-fold symmetry seen without imposing it; validated by single particle averaging of spike side views
[2] = target: Bunyamwera virus Gn–Gc glycoprotein heterodimer (protomer of the membrane-bound glycoprotein spike) (Bunyamwera virus); assay: as above

| Substance | stoichiometry N [1] | stoichiometry N [2] |
| --- | --- | --- |
| Bunyamwera virus Gc glycoprotein (from UniProt P04505 478-1433) (natural protein) | 3 |  |
| Bunyamwera virus Gn–Gc glycoprotein heterodimer (protomer of the membrane-bound glycoprotein spike) (complex) |  | 3 |
